The target of the experiment is T1, BSA (UniProt P02769 25-607).
T1 construct: Negative control antigen in ELISA; also called BSA对照
Briefly: ELISA, BSA coated and blocked as control, HRP anti-IgY secondary. On the technique in general: ELISA stands for enzyme-linked immunosorbent assay.

T1 sequence (P02769 25-607 limits assumed): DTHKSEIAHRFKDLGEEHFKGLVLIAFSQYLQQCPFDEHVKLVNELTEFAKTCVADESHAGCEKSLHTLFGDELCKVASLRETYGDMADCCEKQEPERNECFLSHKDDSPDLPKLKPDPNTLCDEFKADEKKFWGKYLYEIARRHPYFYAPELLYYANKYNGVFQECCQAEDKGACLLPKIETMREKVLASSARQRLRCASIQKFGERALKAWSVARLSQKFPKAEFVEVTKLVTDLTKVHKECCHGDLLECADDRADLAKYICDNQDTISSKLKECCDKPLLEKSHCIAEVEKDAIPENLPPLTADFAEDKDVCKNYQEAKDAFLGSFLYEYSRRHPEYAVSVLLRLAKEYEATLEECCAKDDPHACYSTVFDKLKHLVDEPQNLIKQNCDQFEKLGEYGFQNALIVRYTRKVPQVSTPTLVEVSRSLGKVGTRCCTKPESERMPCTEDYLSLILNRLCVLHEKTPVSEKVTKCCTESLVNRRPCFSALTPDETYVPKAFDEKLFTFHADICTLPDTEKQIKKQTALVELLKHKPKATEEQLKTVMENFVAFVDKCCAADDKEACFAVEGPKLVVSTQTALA

B1: ProteinA抗体IgY-81 (antibody, V domains shown)
VH: AVTLDESGGGLQTPGGALSLVCKASGFTFSSNGMGWVRQAPGKGLEYVASISNDGSLTDYASPVKGRATISRDNGQSTVRLQLNNLRAEDTGTYYCAKSPGGGWLADPIDAWGRGTEVIVSS
VL: QAALTQPASVSANPGETVQITCSGGGSSRYYGWYQQKSPGSAPVTLIYDNINRPSGIPSRFSGSTSGSTGTLSITGVRAEDEAVYYCGSFDSSGTGIFGAGTTLTVL
notes: Coating (capture) antibody in the sandwich ELISA
As for B1, the binding result is listed as “no binding (tested: 1μg/ml, two-fold dilutions)”.

B2: ProteinA抗体IgY-80 (antibody, V domains shown)
VH: AVTLDESGGGLQTPGGTLSLVCKASGFTFSDRGMHWVRQAPGKGLEWVAGTYTSGSITYYAPAVNGRATISRDNGQSTLRLQLNNLRAEDSGTYYCARDFGPSGWNAGSIDAWGHGTEVIVSS
VL: QAALTQPSSVSANLGGTVKITCSGGGSRYGYMYGWIQQTSPGSAPVTVIYDNTNRPSNIPSRFSGSLSGSTNTLTITGVQAEDEAVYFCGSYEGTTLTFGAGTTLTVL
notes: Biotin-conjugated as the detection antibody in the sandwich ELISA
As for B2, the binding result is given as “no binding (tested: 1μg/ml, two-fold dilutions)”.

The values above are taken from patent CN115992129A (YEASEN BIOLOGICAL TECH SHANGHAI CO LTD, dated 2023).
